{
  "source": "paper PMC11417369",
  "about": "“DNA sequence and chromatin differentiate sequence-specific transcription factor binding in the human malaria parasite Plasmodium falciparum”",
  "binders": {"B1": {"name": "CACACA_negctrl_site189 (dsDNA)", "DNA 1": "AAGTTTATTATATATAAATTATTATATATATATATA", "DNA 2": "TATATATATATATAATAATTTATATATAATAAACTT"}, "B2": {"name": "CACACA_site8688 (dsDNA)", "DNA 1": "AAAACACGCGGACACACACACACACCCACCCATATA", "DNA 2": "TATATGGGTGGGTGTGTGTGTGTGTCCGCGTGTTTT"}, "B3": {"name": "CACACA_site4111 (dsDNA)", "DNA 1": "CCCCCCGTGTTATATACACACATAATCAAATAAAAT", "DNA 2": "ATTTTATTTGATTATGTGTGTATATAACACGGGGGG"}, "B4": {"name": "CACACA_negctrl_site1225 (dsDNA)", "DNA 1": "ATTTTTTTTTTTTTTTTTTATATGCTCTCCATGAGA", "DNA 2": "TCTCATGGAGAGCATATAAAAAAAAAAAAAAAAAAT"}, "B5": {"name": "CACACA_negctrl_site1242 (dsDNA)", "DNA 1": "TATTATTGTCTTTCAAAAAAAAAAAAAAAAAAAAAA", "DNA 2": "TTTTTTTTTTTTTTTTTTTTTTGAAAGACAATAATA"}, "B6": {"name": "CACACA_negctrl_site1587 (dsDNA)", "DNA 1": "TTATAATATAAAAATAAATAAATAAATAAATAAATA", "DNA 2": "TATTTATTTATTTATTTATTTATTTTTATATTATAA"}, "B7": {"name": "CACACA_negctrl_site1047 (dsDNA)", "DNA 1": "TTCACATGAAGAATTAAAATAAAACTAGGAAATTAA", "DNA 2": "TTAATTTCCTAGTTTTATTTTAATTCTTCATGTGAA"}, "B8": {"name": "CACACA_negctrl_site149 (dsDNA)", "DNA 1": "TCTTATTCAAACGTAAAACGAAGAAGAAAAAAAAAA", "DNA 2": "TTTTTTTTTTCTTCTTCGTTTTACGTTTGAATAAGA"}, "B9": {"name": "CACACA_site6310 (dsDNA)", "DNA 1": "ATACATCAAGGACACACACACACACGCACACGCACA", "DNA 2": "TGTGCGTGTGCGTGTGTGTGTGTGTCCTTGATGTAT"}, "B10": {"name": "CACACA_site4405 (dsDNA)", "DNA 1": "TATATATATCTGTACACACACACATATAAATAAATA", "DNA 2": "TATTTATTTATATGTGTGTGTGTACAGATATATATA"}, "B11": {"name": "CACACA_negctrl_site1546 (dsDNA)", "DNA 1": "TCATATATTCAAAAATTTAAAGTTAATAAAACTTGA", "DNA 2": "TCAAGTTTTATTAACTTTAAATTTTTGAATATATGA"}, "B12": {"name": "CACACA_negctrl_site196 (dsDNA)", "DNA 1": "TTTTTAAATATATAATAGAATTGATTGTATTATATA", "DNA 2": "TATATAATACAATCAATTCTATTATATATTTAAAAA"}, "B13": {"name": "CACACA_negctrl_site1067 (dsDNA)", "DNA 1": "ATTATTTTATGAGACATAAAAAAAAAAAAAAAAAAA", "DNA 2": "TTTTTTTTTTTTTTTTTTTATGTCTCATAAAATAAT"}, "B14": {"name": "CACACA_negctrl_site917 (dsDNA)", "DNA 1": "ATTTCTATAAAAATAATCTACATTTTTTTTTTTTTT", "DNA 2": "AAAAAAAAAAAAAATGTAGATTATTTTTATAGAAAT"}, "B15": {"name": "CACACA_site6254 (dsDNA)", "DNA 1": "TATTTATTAAGACACACACACACACGCACAAAATAA", "DNA 2": "TTATTTTGTGCGTGTGTGTGTGTGTCTTAATAAATA"}, "B16": {"name": "CACACA_site2623 (dsDNA)", "DNA 1": "TAATAAATAAATGACACACACACACCCAAAAAAAAA", "DNA 2": "TTTTTTTTTGGGTGTGTGTGTGTCATTTATTTATTA"}, "B17": {"name": "CACACA_site3848 (dsDNA)", "DNA 1": "ATAAAACAAAAACACACACACATACACAAAAAAAAA", "DNA 2": "TTTTTTTTTGTGTATGTGTGTGTGTTTTTGTTTTAT"}, "B18": {"name": "CACACA_site2826 (dsDNA)", "DNA 1": "AGATATAAGAAAAGCACACACACACCCAAAAAAAAA", "DNA 2": "TTTTTTTTTGGGTGTGTGTGTGCTTTTCTTATATCT"}, "B19": {"name": "CACACA_site1515 (dsDNA)", "DNA 1": "AGTACAGACATAGACACACACACACCCATAAAAAAA", "DNA 2": "TTTTTTTATGGGTGTGTGTGTGTCTATGTCTGTACT"}},
  "data": [
    {"target": "T1, PF3D7_0420300 D1 (Plasmodium falciparum, UniProt Q8I1N6 1956-2015)", "T1 sequence": "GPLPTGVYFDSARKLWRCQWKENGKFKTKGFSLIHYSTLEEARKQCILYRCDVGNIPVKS", "assay": "gcPBM; about 25 ug protein; PBS, 1% milk, 0.2 mg/ml BSA, salmon testes DNA, 0.03% Triton X-100", "details": "tags: N-terminal GST (pGEX-4T-1), kept; label: surface-attached array probe", "values": [
      {"binder": "B1", "binding signal": "9.02 ln median PBM intensity, better of two orientations"},
      {"binder": "B2", "binding signal": "10.6 ln median PBM intensity, better of two orientations"},
      {"binder": "B3", "binding signal": "10.8 ln median PBM intensity, better of two orientations"},
      {"binder": "B4", "binding signal": "8.86 ln median PBM intensity, better of two orientations"},
      {"binder": "B5", "binding signal": "8.46 ln median PBM intensity, better of two orientations"},
      {"binder": "B6", "binding signal": "9.04 ln median PBM intensity, better of two orientations"},
      {"binder": "B7", "binding signal": "9.06 ln median PBM intensity, better of two orientations"},
      {"binder": "B8", "binding signal": "8.92 ln median PBM intensity, better of two orientations"},
      {"binder": "B9", "binding signal": "10.4 ln median PBM intensity, better of two orientations"},
      {"binder": "B10", "binding signal": "10 ln median PBM intensity, better of two orientations"},
      {"binder": "B11", "binding signal": "8.61 ln median PBM intensity, better of two orientations"},
      {"binder": "B12", "binding signal": "8.88 ln median PBM intensity, better of two orientations"},
      {"binder": "B13", "binding signal": "8.39 ln median PBM intensity, better of two orientations"},
      {"binder": "B14", "binding signal": "8.83 ln median PBM intensity, better of two orientations"}
    ]},
    {"target": "T2, AP2-HC D1 (Plasmodium falciparum, UniProt Q8IKR9 1316-1374)", "T2 sequence": "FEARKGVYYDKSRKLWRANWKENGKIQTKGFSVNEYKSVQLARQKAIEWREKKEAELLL", "assay": "gcPBM; about 25 ug protein; PBS, 1% milk, 0.2 mg/ml BSA, salmon testes DNA, 0.03% Triton X-100", "details": "tags: N-terminal GST (pGEX-4T-1), kept; label: surface-attached array probe", "values": [
      {"binder": "B15", "binding signal": "12.1 ln median PBM intensity, better of two orientations"},
      {"binder": "B16", "binding signal": "12.1 ln median PBM intensity, better of two orientations"},
      {"binder": "B17", "binding signal": "12.2 ln median PBM intensity, better of two orientations"},
      {"binder": "B18", "binding signal": "12.1 ln median PBM intensity, better of two orientations"},
      {"binder": "B19", "binding signal": "12.1 ln median PBM intensity, better of two orientations"}
    ]},
    {"target": "T3, AP2-LT D1 (Plasmodium falciparum, UniProt Q8IAM1 2520-2577)", "T3 sequence": "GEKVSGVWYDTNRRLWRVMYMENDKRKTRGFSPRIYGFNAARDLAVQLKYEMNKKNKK", "assay": "gcPBM; about 25 ug protein; PBS, 1% milk, 0.2 mg/ml BSA, salmon testes DNA, 0.03% Triton X-100", "details": "tags: N-terminal GST (pGEX-4T-1), kept; label: surface-attached array probe", "values": [
      {"binder": "B1", "binding signal": "8.75 ln median PBM intensity, better of two orientations"},
      {"binder": "B2", "binding signal": "10.7 ln median PBM intensity, better of two orientations"},
      {"binder": "B3", "binding signal": "10.8 ln median PBM intensity, better of two orientations"},
      {"binder": "B4", "binding signal": "8.79 ln median PBM intensity, better of two orientations"},
      {"binder": "B5", "binding signal": "8.23 ln median PBM intensity, better of two orientations"},
      {"binder": "B6", "binding signal": "8.74 ln median PBM intensity, better of two orientations"},
      {"binder": "B7", "binding signal": "8.81 ln median PBM intensity, better of two orientations"},
      {"binder": "B8", "binding signal": "8.7 ln median PBM intensity, better of two orientations"},
      {"binder": "B9", "binding signal": "10.6 ln median PBM intensity, better of two orientations"},
      {"binder": "B10", "binding signal": "10.1 ln median PBM intensity, better of two orientations"},
      {"binder": "B11", "binding signal": "8.35 ln median PBM intensity, better of two orientations"},
      {"binder": "B12", "binding signal": "8.6 ln median PBM intensity, better of two orientations"},
      {"binder": "B13", "binding signal": "8.39 ln median PBM intensity, better of two orientations"},
      {"binder": "B14", "binding signal": "8.54 ln median PBM intensity, better of two orientations"}
    ]}
  ]
}
